From publication doi:10.1101/2025.02.27.640520

Target: DeCLIC (Desulfofustis deltaproteobacterium)
Assay: cryo-EM structure

- stoichiometry N: 5
Substance: DeCLIC (natural protein)
